Patent US20250000904A1

Key:
Assay in all cases: cell-based or functional assay
[1] = target: TGFβR2-IL21Rβ signaling redirector receptor
[2] = target: TGFβR2-IL2Rβ signaling redirector receptor
[3] = target: TGFβR2-IL12Rβ signaling redirector receptor

Measured: increase in tumor cell numbers over base input after three rounds of restimulation, with recombinant TGFβ

Sequence of TGFβR2-IL12Rβ signaling redirector receptor (main, as listed by the source): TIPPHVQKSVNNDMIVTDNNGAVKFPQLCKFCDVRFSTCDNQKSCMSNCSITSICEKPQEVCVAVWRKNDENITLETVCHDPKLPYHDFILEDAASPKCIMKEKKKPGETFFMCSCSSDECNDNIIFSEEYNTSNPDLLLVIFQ
Sequence of TGFβR2-IL21Rβ signaling redirector receptor (chain, as listed by the source): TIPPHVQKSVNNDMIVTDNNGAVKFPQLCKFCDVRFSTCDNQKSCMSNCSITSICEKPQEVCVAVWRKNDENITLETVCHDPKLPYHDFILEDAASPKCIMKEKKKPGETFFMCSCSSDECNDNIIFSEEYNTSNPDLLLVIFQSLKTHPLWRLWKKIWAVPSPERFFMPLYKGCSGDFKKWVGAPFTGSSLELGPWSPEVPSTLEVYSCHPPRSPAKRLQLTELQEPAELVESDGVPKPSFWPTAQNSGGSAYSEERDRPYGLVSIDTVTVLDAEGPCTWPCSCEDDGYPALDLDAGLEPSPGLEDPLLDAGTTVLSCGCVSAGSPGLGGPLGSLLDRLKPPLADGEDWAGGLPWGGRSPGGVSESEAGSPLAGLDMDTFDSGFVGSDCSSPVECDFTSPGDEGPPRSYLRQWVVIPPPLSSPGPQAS
Sequence of TGFβR2-IL2Rβ signaling redirector receptor (chain, as listed by the source): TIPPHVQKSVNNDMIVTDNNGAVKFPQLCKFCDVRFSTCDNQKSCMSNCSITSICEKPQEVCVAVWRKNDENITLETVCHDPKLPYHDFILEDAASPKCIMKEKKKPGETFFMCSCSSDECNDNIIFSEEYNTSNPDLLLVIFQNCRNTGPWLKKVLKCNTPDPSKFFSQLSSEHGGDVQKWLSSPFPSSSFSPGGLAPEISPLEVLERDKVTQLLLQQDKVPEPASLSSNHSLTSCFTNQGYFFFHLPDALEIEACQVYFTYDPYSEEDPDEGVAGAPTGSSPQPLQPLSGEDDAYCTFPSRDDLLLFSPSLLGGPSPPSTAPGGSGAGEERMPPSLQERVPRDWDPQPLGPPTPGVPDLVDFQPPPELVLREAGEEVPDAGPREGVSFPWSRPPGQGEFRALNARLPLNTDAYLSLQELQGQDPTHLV

recombinant TGFβ (ligand)
1.5 fold: all assays above
